{"source": "paper PMC5352144", "about": "“Deacetylation of sialic acid by esterases potentiates pneumococcal neuraminidase activity for mucin utilization, colonization and virulence” (PLoS Pathogens, 2017)", "system": "CC(=O)Oc1ccc([N+](=O)[O-])cc1", "experiment": "purified protein", "settings": "pH 7.5", "data": [{"substance": "Axe (Streptococcus pneumoniae D39)", "values": [{"measurement": "Km", "value": "4.4 ± 0.58", "unit": "mM"}]}]}
